Experimental data from paper doi:10.1101/2020.02.09.940833.

Columns and labels:
[1] = target: SAR1A (human) (UniProt Q9NR31); assay: liposome flotation
[2] = target: SAR1B>A-helix (human) (UniProt Q9Y6B6); assay: liposome flotation

Sequence of SEC23A (Q15436 whole entry): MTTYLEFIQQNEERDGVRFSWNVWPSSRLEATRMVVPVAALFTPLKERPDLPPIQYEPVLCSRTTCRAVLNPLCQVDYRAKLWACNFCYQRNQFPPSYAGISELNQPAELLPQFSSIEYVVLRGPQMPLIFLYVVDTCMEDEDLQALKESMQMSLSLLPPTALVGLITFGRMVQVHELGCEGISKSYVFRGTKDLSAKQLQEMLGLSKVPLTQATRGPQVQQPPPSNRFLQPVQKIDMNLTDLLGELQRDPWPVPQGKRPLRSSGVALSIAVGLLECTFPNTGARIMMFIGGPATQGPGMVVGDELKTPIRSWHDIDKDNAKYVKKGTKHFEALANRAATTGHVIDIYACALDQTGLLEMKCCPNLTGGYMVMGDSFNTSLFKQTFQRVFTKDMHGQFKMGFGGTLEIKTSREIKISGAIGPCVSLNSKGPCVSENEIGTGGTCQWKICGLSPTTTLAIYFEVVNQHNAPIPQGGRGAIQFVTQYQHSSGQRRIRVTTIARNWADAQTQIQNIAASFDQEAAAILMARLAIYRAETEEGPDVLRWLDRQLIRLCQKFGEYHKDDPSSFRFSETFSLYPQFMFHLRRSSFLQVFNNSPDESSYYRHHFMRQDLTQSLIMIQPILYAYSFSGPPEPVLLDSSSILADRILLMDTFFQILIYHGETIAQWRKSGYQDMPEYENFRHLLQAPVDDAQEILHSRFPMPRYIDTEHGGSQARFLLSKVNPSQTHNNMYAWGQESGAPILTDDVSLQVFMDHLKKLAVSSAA
Sequence of SAR1A (human) (Q9NR31 whole entry): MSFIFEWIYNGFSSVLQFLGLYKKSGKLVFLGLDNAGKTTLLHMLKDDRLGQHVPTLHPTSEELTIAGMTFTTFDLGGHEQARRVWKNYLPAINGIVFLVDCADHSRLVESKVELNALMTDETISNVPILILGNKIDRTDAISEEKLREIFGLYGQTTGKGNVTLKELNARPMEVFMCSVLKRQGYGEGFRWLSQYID

Substance | fold recruitment relative to SAR1B [1] [fold] | fold reduction of binding (reference as read: SAR1A>B-helix) [2] [fold]
GTPase activating fragment of SEC31A (from UniProt O94979 1-1220) (domain or fragment) | 2 | 
SEC23A (from UniProt Q15436 1-765) (natural protein) |  | 2
